The values that follow are results of earlier work, collected in publication PMC4850115.

The term Kd denotes the concentration at which binding is half-saturated.

This data set has as its target p38 (Homo sapiens) (UniProt Q16539).
UniProt Q16539, sequence (Q16539 2-360): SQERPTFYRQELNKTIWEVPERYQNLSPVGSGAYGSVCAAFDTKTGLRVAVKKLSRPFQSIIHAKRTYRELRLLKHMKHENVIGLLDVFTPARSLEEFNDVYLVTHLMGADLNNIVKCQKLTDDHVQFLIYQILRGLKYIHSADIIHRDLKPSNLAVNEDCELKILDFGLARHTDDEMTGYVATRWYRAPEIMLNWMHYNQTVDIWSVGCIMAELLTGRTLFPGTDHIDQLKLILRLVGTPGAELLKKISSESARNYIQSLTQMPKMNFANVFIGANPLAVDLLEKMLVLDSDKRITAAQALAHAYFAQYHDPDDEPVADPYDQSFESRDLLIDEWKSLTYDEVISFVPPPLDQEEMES

Turning to MK2 370-400 (from UniProt P49137), the Kd was 20 nM.
